B1: HDV Ribozyme (parent)
chain: GGCCGGCAUGGUCCCAGCCUCCUCGCUGGCGCCGGCUGGGCAACAUUCCGAGGGGACCGUCCCCUCGGUAAUGGCGAAUGGGACCCA

Variants of: B1
Assay: self-cleavage, relative activity (ratio to wild type); higher = more cleavage; co-transcriptional

Row | Variant | self-cleavage
1 | C15U G82U | 0.231
2 | U69G G73C | 0.665
3 | C33A C84A | 0.0811
4 | G17C U65C | 0.529
5 | G40U G73C | 0.166
6 | C36U A43U | 0.095
7 | C33G C57U | 0.166
8 | G80C G82C | 0.166
9 | C21A C22G | 0.108
10 | A16C G25A | 0.0405
11 | U9A G59A | 1.19
12 | C24G G28A | 0.148
13 | G11A U72A | 0.179
14 | C4A C7G | 0.104
15 | C24A C30U | 0.0723
16 | G11C C14A | 0.106
17 | C26U A70C | 1.08
18 | C13U C44A | 0.18
19 | U20A G67U | 0.115
20 | A42C G81U | 0.16
21 | C15A C63A | 0.403
22 | C48A C62G | 0.359
23 | C4U C24A | 0.0583
24 | A56G G82A | 0.277

Row | Variant | self-cleavage
25 | C7U A78G | 0.375
26 | G68U G80A | 0.171
27 | U47A G55U | 1.01
28 | C3U A77C | 0.0639
29 | C26A A51C | 1.13
30 | C48G U79C | 0.345
31 | A42C U60A | 0.189
32 | C41U C48A | 1.07
33 | G5U C19U | 0.0923
34 | C19G C24G | 0
35 | G67C A77U | 0.707
36 | A42G U60G | 0.639
37 | C32A G34C | 0.208
38 | U37C C85G | 0.95
39 | G31A C49U | 0.404
40 | G5C G76C | 0.199
41 | C4G U60C | 0.0875
42 | G25A G74A | 0.0767
43 | U69A U72C | 0.665
44 | U9G U60A | 0.831
45 | G39C C75A | 0.142
46 | G10U C61A | 0.665
47 | U9A C58A | 0.789
48 | G6U G34U | 0.0755

Row | Variant | self-cleavage
49 | G11U A45G | 0.587
50 | C44G C85A | 0.525
51 | G11U U20C | 0.0248
52 | C21U A83U | 0.162
53 | U69A G73C | 0.264
54 | G53A | 1
55 | C15A G17C | 0.0978
56 | G10C A56C | 0.978
57 | U12G C75U | 0
58 | G40U G50A | 0.577
59 | G2A C22U | 0.0183
60 | C64U G81C | 0.315
61 | G1U U23C | 0.665
62 | C13A C48A | 0
63 | C41G C48U | 0.649
64 | G80C C85A | 0.117
65 | C58A A70U | 1
66 | G10U G52U | 0.891
67 | U12C A87C | 0.479
68 | C44A A45G | 1.01
69 | C14U A77C | 0.249
70 | C13U C15G | 0.356
71 | G5A C57U | 0.106
72 | G6U G76U | 0.731

Row | Variant | self-cleavage
73 | C36U C84U | 0.716
74 | A16U G68A | 1.09
75 | G17A G74U | 0.197
76 | C3G U27C | 0.133
77 | G6U U12A | 0
78 | G10A C21A | 0
79 | C7G C66A | 0.161
80 | A70C G73U | 0.302
81 | G6U C14U | 0.682
82 | A71C A83C | 0.229
83 | G29A C44G | 0.151
84 | G6C C24U | 0
85 | C36A C57G | 0.0898
86 | A70C U72G | 0.185
87 | U20C A83U | 0
88 | G10U C86G | 0.445
89 | U12G U20G | 0
90 | G11A C41U | 0.396
91 | C4G C19G | 0.086
92 | A42U C49G | 0.312
93 | A45C C85U | 0.437
94 | A45G A83U | 0.485
95 | G10C C48U | 0.911
96 | C15U U23A | 0.831

Row | Variant | self-cleavage
97 | U12A U46G | 0.104
98 | C44G G74A | 0.523
99 | G11U G39A | 0.128
100 | G28U G55U | 0.185
101 | C57U G80A | 0.148
102 | C14U A45C | 0.646
103 | C64A A71U | 0.855
104 | A16C G68A | 0.649
105 | U27A G52A | 0.844
106 | A45U C86G | 0.795
107 | G10U C13A | 0.0332
108 | G5C G34C | 0
109 | U20G G82U | 0.104
110 | C13A C85G | 0.0396
111 | U27C C48G | 0.831
112 | C14A U46C | 0.237
113 | C13A C18U | 0.0604
114 | G17U C48U | 0.458
115 | C36A G67U | 0.155
116 | C48U A56U | 0.987
117 | A8C U69A | 0.688
118 | C58U U72A | 0.58
119 | U65G C84U | 0.704
120 | G74C A83C | 0.295

Row | Variant | self-cleavage
121 | C63G G74A | 0.326
122 | C44U A83U | 0.208
123 | C32U C49U | 0.803
124 | G11A | 0.42
125 | U23A G67A | 0.782
126 | C26G U72C | 0.862
127 | C36U G38U | 0.147
128 | C41G C66A | 0.96
129 | C4A U9C | 0.268
130 | U69C A71G | 0.974
131 | C7G C75U | 0
132 | G38C | 0.239
133 | G68C C86G | 1.07
134 | G1A A71G | 0.104
135 | U46C C86A | 0.849
136 | A8C C75A | 0.128
137 | C66A A83U | 0.225
138 | C21U C61U | 0.319
139 | A43C C63G | 0.185
140 | C19U C75U | 0.0329
141 | C30G G73U | 0.0845
142 | C63U C66U | 0.816
143 | C58U G81A | 0.584
144 | C24G A71C | 0

Row | Variant | self-cleavage
145 | C15U C44G | 0.214
146 | C36G C49G | 0.0773
147 | G67A A70U | 0.776
148 | G25A U60G | 0.125
149 | C18A G31U | 0.141
150 | C15A C24U | 0.0811
151 | G35C C62A | 0.277
152 | C15A G73C | 0.249
153 | C19G G59A | 0.0542
154 | C48G G54C | 0.665
155 | C13U A87C | 0.647
156 | C36A A45G | 0.256
157 | G31A C32A | 0.0941
158 | C44A C75G | 0.369
159 | C7G G50A | 0.612
160 | G35U A71C | 0.237
161 | G2C G76C | 0.0747
162 | U12G A87C | 0.749
163 | G40A C48A | 0.941
164 | G2A C4U | 0.163
165 | C13G G40A | 0.119
166 | C13G A77G | 0.199
167 | C3G C33U | 0.194

Reference: the RNAGym collection of RNA variant scans (doi:10.7554/elife.80360)
